From the nanobody polyreactivity screen of Harvey et al. (2022)

Test: yeast display, Sf9 membrane polyspecificity reagent, FACS + sequencing; frameworks hold sequencing errors
Method in brief: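 A synthetic nanobody library was expressed on Saccharomyces cerevisiae BJ5465 by galactose induction for 36–48 hours. The library was stained for 1 hour at 4 °C with 10% biotinylated, detergent-solubilized Sf9 membrane reagent and enriched with streptavidin microbeads before FACS. Low and high (top ~1%) gates were set on anti-HA fluorescence for expression and streptavidin fluorescence for reagent binding, and each polyreactivity label reflects the gate of origin.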

Sequence	polyreactivity (PSR sort gate)
QVQLVESGGGLVQAGGSLRLSFAASGRTFLVYAMGWYRQAPGKERELVAGITSGGGTYYADSVKGRFTISRDNAKNTVYLQMNSLKPEDTAVYYCAKYRWYGVYWGQGTQVTVSS	low polyreactivity
QVQLVESGGGLVQAGGSLRLSFAASGRTFPDNAMGWYRQAPGTQRELVATISWSGGSTYYADSVKGRFTISRDNAKNTVYLQMNSLKPEDTAVYYCARDSLQVFYPYASDDYWGQGTQVTVSS	low polyreactivity
QVQLVESGGGLVQAGGSLRLSFAASGRTFSGYAMGWYRQAPGKERELVASISGSGSSTYYADSVKGRFTISRDNAKNTVYLQMNSLKPEHTAVYYCNATRAGENPDGGDEYWGQGTQVTVSS	high polyreactivity
QVQLVESGGGLVQAGGSLRLSFAASGRTFTYNAMGVYRQAPGKERELVAAMTYRGGSTYYADSVKGRFTISRDNAKNTVYLQMNSLKPEDTAVYYCAARVSYYRYNTPHYYYWGQGTQVTVSS	high polyreactivity
QVQLVESGGGLVQAGGSLRLSFAASGRTFYGYAMGWYRQAPGKERELVASIRQSAGRTYYADSVKGRFTISRDISKNTVYLVMNSLKPEDSAVYYCAASIFLRSFYQQGNYWGQGTHVTVSS	high polyreactivity
QVQLVESGGGLVQAGGSLRLSFAASGRTFYINDMGWYRQAPGKERELVAAITWRGGSTYYADSVKGRFTISRDNAMNTVYLQMNSLKPEDTAVYYCAAYISLYWWYDYWGQGTQVTVSS	low polyreactivity
QVQLVESGGGLVQAGGSLRLSFAASGSIFKGNVMGWYRQAPGKERELVAGISRRGTSTYYADSVKGRFTISRDNAKNSVYLQMNSLKPEDSAVYYCAKRYYTYGYDYWGQGTQVTVSS	high polyreactivity
QVQLVESGGGLVQAGGSLRLSFAASGSIFRYYVMGWYRQAPGKERELVAAISSGGRTYYADSVKGRFTISRDNAKNTVYLQMNSLKPEDTAVYYCNAQGLFYWEMDYWGQGTQVTVSS	high polyreactivity
QVQLVESGGGLVQAGGSLRLSFAASGSNFAVKAMGLNTPAPGKERELVATITRRDGSTYYADSVKGRFTISRDNAKYTVYLQLNSLKPEDTAVYYCNARLKRTYDYWGQGTQVTVSS	high polyreactivity
QVQLVESGGGLVQAGGSLRLSFAASGSNFYIYAMGWYRQAPGKERELVAAITSGGNTYYVDSVKGRFTISRDNAKNTVYFQMNSLKPEDTAVYYCAAELYDRWSRMDYWGQGTQVTVSS	low polyreactivity
QVQLVESGGGLVQAGGSLRLSFAASGSTFKFNAMGWYRQAPGKERELVATITSRGSRTYYADSVKGRFTISRDNAKNTVYLQMNSLKPEDTAVYYCAKVSKRVGFPTAMNYWGQGTQVTVSS	high polyreactivity
QVQLVESGGGLVQAGGSLRLSFAASGSTIGDNAMGWYRQAPGKERELVAVITSDTSTYYADSVKGRFTISRDNAMNTVYLQMNSLKPEDTAVYYCAADWGGLWFWYEYWGQGTQVTVSS	low polyreactivity
QVQLVESGGGLVQAGGSLRLSFAASGSTLGQNAMGWYRQARGKERELVAASSSGGRTYYADSVKGRFTISRDNAKNTVYLQMNSLNPEDTAVYYCNAVAYSLSGYNSWGQGTQVTVSS	high polyreactivity
QVQLVESGGGLVQAGGSLRLSFAASGYTFSPYAMGWYRQAPGKERELVAVISSSASTYYADSVKGRFTISRDNAKITVYLQMNSLKPEDTAVYYCAAQPAHPRRYDYWGQGTQVTVSS	high polyreactivity
QVQLVESGGGLVQAGGSLRLSFAASGYTFWYYAMGWYRQAPGKERELVARISKRGGSTYYADSVKGRFTISRDNAKNTVYLQMNSLKPEDTEVYYCAADTRQQSHSMDYWGQGTQVTVSS	low polyreactivity
QVQLVESGGGLVQAGGSLRLSFGASGLNFGWYAMGWYRKAPGKERELVAAITYDGDSTYYADSVKGRFTISRDNAKNTVYFQMNSLKPEDTAFYYCAGEYGYGEMDSWGQGTQVTVTS	high polyreactivity
QVQLVESGGGLVQAGGSLRLSGAASGITIKRYAMGWYRQAPGKEREFVATISQSGTSTYYADSVKGRFTISRDNAQNTVYLQMNSLKPEDTAVYYCAADYIGYWYGYYSWGQGTQVTVSS	low polyreactivity
QVQLVESGGGLVQAGGSLRLSGAASGNIFDNYAMGWYRQAPGKERELVAAITWSGGSTYYADSVKGRFTISRDNAKNTVYLQMNSLKPEDTAVYFCNTDYNHVFAYDHWGQGTQVTVSS	low polyreactivity
QVQLVESGGGLVQAGGSLRLSGAASGRIFAQYAMGWYRPAPAKERELVAAITAGDDTYADSVKGRFTISRDNAKNTVYLQMNSLKPEDTAVYYCAAETWDLTWWGAYDLGEYWGQGTQVTVSS	high polyreactivity
QVQLVESGGGLVQAGGSLRLSGAASGRIFATNAMGWYRQAPGKETELVATITRSAGRTYYADSVKGRFTNSRDNAKNTVYLQMNSLKPEETAVYYCAASYWDTEPGYREYDYWGQGTQVTVSS	low polyreactivity
QVQLVESGGGLVQAGGSLRLSGAASGRIFGSYARGWYRQAPGKEREFVAGIRSVGSTNYADSVKGRFTISRDNAKNTVYLQMNSLKPEDTAVSYCASRLWHVSYAGQGGDYWGKGTQVTVSS	low polyreactivity
QVQLVESGGGLVQAGGSLRLSGAASGRTFKHYVMGWYRQAPGKARELVAAYRSGGRTNYADSVKGRFTISRDNAKNTVYLQMNRVKPADTAVYYCAARYFSQYQGAGYDSWGQGTQVTVSS	high polyreactivity

Sequence	polyreactivity (PSR sort gate)
QVQLVESGGGLVQAGGSLRLSGDATGLIFNKYAMGWYRQAPGKERELVAVISFRGDGTHYADSVKGRFTISRDNAKYTVYLQMNSLKPEDTAVYYCNARTSIYGRRLYDYWGQGTQVTVSS	high polyreactivity
QVQLVESGGGLVQAGGSLRLSGSASGRTFSQYVMRWYRQAPGQERELVAAISKRGGRTYYADSVQGRFTISRDNAKNTVYLQMNSLNPEDTAVYYCNDVYRYYPFDYWGQGTQVTVSS	high polyreactivity
QVQLVESGGGLVQAGGSLRLSRAASGFTWSYAMGWYRQAPGKERELVATISDGVSTNYADSVKGRFTISRDNAKNTVYLQRNSLKPEDTAVYYCAAEIPRRWASFATLWYDYWGQGTQVTVSS	low polyreactivity
QVQLVESGGGLVQAGGSLRLSRAASGRTFYGYAMGWYRQAPGKESELVARIRSGGSTNYADSVKGRFTISRDNAKNTVYLLMNSLIPEDTAVFYCAARPGAAGYKYYYWGQGTQVTVSS	high polyreactivity
QVQLVESGGGLVQAGGSLRLSSAASARIFFKNTKGWYRPAPGKERELVAAITSSGSSTYYADSVKGRFTISRDNAKKTVYLQMNSLKPEDTAVYYCNALTWDHSRTGVDYWGQGTQVTVSS	low polyreactivity
QVQLVESGGGLVQAGGSLRLSSAASGFIFGAYAMGWYRQAPGKERELVAANSSRGGNTYYADSVKGRFTISRDNAKNTVYLQMNSLKPEDPAVYDCNAVGYAPYLYVPPPYEYWGQGTQVTVSS	high polyreactivity
QVQLVESGGGLVQAGGSLRLSSAASGFIFGSNAMGWYRQAPGKERELVAAISRSGGSTYYADSVKGRFTISRDNAKNTVYLQMNSLKPEDTAVYYCASYLYKSRYLPEYDYWGQGTQVTVSS	high polyreactivity
QVQLVESGGGLVQAGGSLRLSSAASGFIFTWYAMGWYIQAPGKERELVAAISSSGGRTYYADSVKGRFTISRDNAKNTVYLQMNSLKPEDSAVYYCTAVKFIRQHSEYDYWGQGTLVTVSS	high polyreactivity
QVQLVESGGGLVQAGGSLRLSSAASGFIFYQYAMGWYRQAPGKERELVAAISKSGGNTYYADSVKGRFTISRDNAKNTVYLQMNSLKPEDSAVYYCAADRGQRGMYYWGQGTQVSVSS	high polyreactivity
QVQLVESGGGLVQAGGSLRLSSAASGFTFASYAMGWYRQAPGKERELVAAIDSDDSTNYADSVKGRFTISRDNAKNTVYLHMNSLKPEDTSVYYCAADEGPYYGIYEYYYWGQGTQVTVSS	high polyreactivity
QVQLVESGGGLVQAGGSLRLSSAASGFTFAYNDLGWSRQAPGKERELVATITNSGASTSYADSEKGRFTISRDNAKNTVYLQMNSLKPEDTAVYYCNVGLWRYVRFTGRYYPYDYWGQGTQVTVSS	high polyreactivity
QVQLVESGGGLVQAGGSLRLSSAASGFTFVINDMGWYRPAPGKERELVADITSGGDTYYADSVKGRFTISRDNAKNTVYLQMNSLKPEDTAVYYCAADIYPDWIYLLYGYWGQGTQVTVSS	low polyreactivity
QVQLVESGGGLVQAGGSLRLSSAASGFTLYYYTMGWYRQAPGKERELVAAITSGGDTYYADSVKGRFTISRDNAKNTVYLHMHSLKPEDTAVYYCAADYGTQYGEYTYYDYDYWGKGTQVTVSS	low polyreactivity
QVQLVESGGGLVQAGGSLRLSSAASGITFATYAMGWYRQAPGKERELVAAISSSTGSTYYADSVKGRFTISRDNAKNTVYLQMNSLKPEDTAVYYCAAVRTQQYDYWGQGTQVTVSS	low polyreactivity
QVQLVESGGGLVQAGGSLRLSSAASGITFAYYAMGWYRLAPGTVRELVAAISSTGSSTYYADSVKGRFTISRDNAKNTVYLQMNSLKPEDTAVYYCAARVHYRGIVRYDYWGQGTQVTVSS	high polyreactivity
QVQLVESGGGLVQAGGSLRLSSAASGITFKAYAMGWYRHAPGKERELVAAISGSGGATYYADSVEGRFTISRDNEKNTVYLQMISLKPEVTAVYYCAARAVSLTGYRFGYWGQGTQVTVSS	high polyreactivity
QVQLVESGGGLVQAGGSLRLSSAASGITFRFYSMGWYRQAPGKEREFVAAISTRGGRTYYADSVKGRFTISRDNAKNTVYLQMKSLKPEDTAVYYFAADFYYRTVATVTSVARYDYWGQGTQVTVSS	high polyreactivity
QVQLVESGGGLVQAGGSLRLSSAASGITFRYYTMGWYRQAPGKERELVAAITWSGGSTYYADSVKGRFTISRDNAKNTVYLQMNSLKPEDTAVYYGAADSYRFRYSGYDYWGQGTQVTVSS	high polyreactivity
QVQLVESGGGLVQAGGSLRLSSAASGLIFSVNAMGWYRQAPGKESEMIAAISKSGGRTYYADSVKGRFTISRDNAKNTVYLQMNSLKPEDTAVYYCAKRSRWNYKGYGTCGYYWGQGTQVTVSS	high polyreactivity
QVQLVESGGGLVQAGGSLRLSSAASGLIFYDNMGWSRQAPGKERELDAAISSSGGSTSDADSVKGRFTISRDNAKNTVYLQMNSLKPEDTAVYYCAADSYPDYLGFVGFDYWGQGTQVTVSS	low polyreactivity
QVQLVESGGGLVQAGGSLRLSSAASGLIFYWYAMGWYRQAPGKERELVAAISSAGSTNYADSVKGRFTISRDNAKNTVYLQMNSLKPEDTAVYYCAKGGYSPKSVKYYDYWGQGTQVTVSS	low polyreactivity
